# Test results taken from publication doi:10.1101/2025.09.11.675134, “Biodistribution-Driven Discovery Identifies a Glycosidase-Cleavable Linker to Reprogram Radiotheranostics” (bioRxiv, 2025).
# Read-outs that look alike come from different tables or passages of the source.
# Columns and labels:
# [1] = Ex vivo biodistribution of 86Y-labeled variants in AR42J tumor-bearing mice; details: athymic nude, mouse, iv, 1 ug, total radioactivity, mean; for tissue uptake at 1 h: 1 h post-injection; for tissue uptake at 4 h: 4 h post-injection; for tissue uptake at 24 h: 24 h post-injection
# Experimental: To independently confirm these observations, ex vivo biodistribution studies were conducted using the same ^86Y-labeled compounds at matched timepoints (Fig. S16; Table S3). […]
# For studies involving three variants (DOTA -TATE, DOTA-MVK(ε)-TATE, and DOTA-β-Gal-TATE), AR42J cells (5 × 10^6 cells per mouse) were subcutaneously inoculated into the right shoulder of the mice. Tumors were allowed to grow for 3 weeks, reaching a volume of 100 –200 mm³ before being used in subsequent experiments. For biodistribution or PET imaging studies, mice bearing subcutaneous AR42J tumors were administered 1.4 – 1.8 MBq (1 μg) of 111In-labeled DOTA-TATE variants or 2.7 – 4.9 MBq (1 μg) of 86Y-labeled DOTA-TATE variants via tail vein injection. Biodistribution studies with 111In-labeled DOTA -TATE variants were performed 1 hour post -injection (n = 3 per cohort), while studies with 86Y-labeled DOTA-TATE variants were conducted at 1, 4, and 24 hours post -injection (n = 3 per cohort). Mice were euthanized by CO2 asphyxiation, and 10 tissues, including tumors, were collected. All samples were weighed and counted on a gamma counter (2480 Wizard 3, Perkin Elmer Inc., Waltham, MA, USA). Results are presented as percentage of injected activity per gram (%IA/g) and mean values ± standard deviations. […]
# [2] = PET/CT quantification of 86Y-labeled variants in AR42J xenograft mice; format: in vivo; details: athymic nude, mouse, in vivo, iv, total radioactivity
# Experimental: For studies involving three variants (DOTA -TATE, DOTA-MVK(ε)-TATE, and DOTA-β-Gal-TATE), AR42J cells (5 × 10^6 cells per mouse) were subcutaneously inoculated into the right shoulder of the mice. Tumors were allowed to grow for 3 weeks, reaching a volume of 100 –200 mm³ before being used in subsequent experiments. For biodistribution or PET imaging studies, mice bearing subcutaneous AR42J tumors were administered 1.4 – 1.8 MBq (1 μg) of 111In-labeled DOTA-TATE variants or 2.7 – 4.9 MBq (1 μg) of 86Y-labeled DOTA-TATE variants via […]
# tail vein injection. […]
# PET imaging to assess the uptake of three 86Y-labeled DOTA-TATE variants (2.7 – 4.9 MBq, 1 μg) in the kidney and tumor was performed at 1, 4, and 24 hours post-injection (n = 3 per cohort) in mice bearing AR42J tumors using the MRS*PET/CT 120 scanner (MR Solutions, Guildford, UK). PET/CT data acquisition was managed using Preclinical Scan software (version 4.2.4.0, MR Solutions). Mice were anesthetized with 2% isoflurane, and static PET sc ans were acquired over 10 min. CT scans were obtained for attenuation correction and anatomical co-registration.
# PET data were reconstructed using three-dimensional ordered-subsets expectation maximization, and were subsequently normalized, decay - and dead-time–corrected prior to analysis. PET/CT images were analyzed using MIM software (version 7.2.7, MIM Software Inc., Beachwood, OH, USA), and the quantitative evaluation of the maximum standardized uptake (SUVmax) and the average standardized uptake values (SUVmean) in the kidney and tumor were also performed. […]
# [3] = blood, ex vivo, n = 3, read-out: Blood uptake
# [4] = femur, ex vivo, n = 3, read-out: Femur uptake
# [5] = heart, ex vivo, n = 3, read-out: Heart uptake
# [6] = intestine, ex vivo, n = 3, read-out: Intestine uptake
# [7] = ex vivo, n = 3, read-out: Tumor uptake
# [8] = kidney, ex vivo, n = 3, read-out: Kidney uptake
# [9] = liver, ex vivo, n = 3, read-out: Liver uptake
# [10] = lung, ex vivo, n = 3, read-out: Lung uptake
# [11] = muscle, ex vivo, n = 3, read-out: Muscle uptake
# [12] = spleen, ex vivo, n = 3, read-out: Spleen uptake
smiles,measurement,setting,value
"CSCC[C@H](NC(=O)CN1CCN(CC(=O)O)CCN(CC(=O)O)CCN(CC(=O)O)CC1)C(=O)N[C@H](C(=O)N[C@@H](CCCCNC(=O)CCCC(=O)N[C@H](Cc1ccccc1)C(=O)N[C@H]1CSSC[C@@H](C(=O)N[C@H](C(=O)O)[C@@H](C)O)NC(=O)[C@H]([C@@H](C)O)NC(=O)[C@H](CCCCN)NC(=O)[C@@H](Cc2c[nH]c3ccccc23)NC(=O)[C@H](Cc2ccc(O)cc2)NC1=O)C(=O)O)C(C)C [^86Y-DOTA-MVK(ε)-TATE, metal not drawn]",tissue uptake at 1 h,"[1]; blood, i.v. 1 μg (2.7–4.9 MBq), ex vivo gamma counting, n = 3, read-out: Blood uptake",0.32 %ID/g
same,tissue uptake at 4 h,[1]; [3],0.17 %ID/g
same,tissue uptake at 24 h,[1]; [3],0.02 %ID/g
same,tissue uptake at 1 h,[1]; [4],0.52 %ID/g
same,tissue uptake at 4 h,[1]; [4],0.21 %ID/g
same,tissue uptake at 24 h,[1]; [4],0.2 %ID/g
same,tissue uptake at 1 h,[1]; [5],0.35 %ID/g
same,tissue uptake at 4 h,[1]; [5],0.24 %ID/g
same,tissue uptake at 24 h,[1]; [5],0.08 %ID/g
same,tissue uptake at 1 h,[1]; [6],0.69 %ID/g
same,tissue uptake at 4 h,[1]; [6],0.46 %ID/g
same,tissue uptake at 24 h,[1]; [6],0.05 %ID/g
same,tissue uptake at 1 h,[1]; [7],5.02 %ID/g
same,tissue uptake at 4 h,[1]; [7],5.08 %ID/g
same,tissue uptake at 24 h,[1]; [7],4.53 %ID/g
same,tissue uptake at 1 h,[1]; [8],4.12 %ID/g
same,tissue uptake at 4 h,[1]; [8],3.78 %ID/g
same,tissue uptake at 24 h,[1]; [8],1.66 %ID/g
same,tissue uptake at 1 h,[1]; [9],0.17 %ID/g
same,tissue uptake at 4 h,[1]; [9],0.15 %ID/g
same,tissue uptake at 24 h,[1]; [9],0.06 %ID/g
same,tissue uptake at 1 h,[1]; [10],0.79 %ID/g
same,tissue uptake at 4 h,[1]; [10],0.47 %ID/g
same,tissue uptake at 24 h,[1]; [10],0.13 %ID/g
same,tissue uptake at 1 h,[1]; [11],0.45 %ID/g
same,tissue uptake at 4 h,[1]; [11],0.23 %ID/g
same,tissue uptake at 24 h,[1]; [11],0.09 %ID/g
same,tissue uptake at 1 h,[1]; [12],0.25 %ID/g
same,tissue uptake at 4 h,[1]; [12],0.22 %ID/g
same,tissue uptake at 24 h,[1]; [12],0.14 %ID/g
same,SUV at 4 h,[2]; Kidney SUVmax,0.42 ± 0.07 SUV
same,SUV at 24 h,[2]; Kidney SUVmax,0.21 ± 0.01 SUV
same,SUV at 1 h,[2]; Tumor SUVmax,1.31 ± 0.06 SUV
same,SUV at 4 h,[2]; Tumor SUVmax,1.06 ± 0.14 SUV
same,SUV at 24 h,[2]; Tumor SUVmax,1.04 ± 0.13 SUV
